Laboratory results published in publication PMC8233224, “Crystal structure of a homotrimeric verrucomicrobial exo-β-1,4-mannosidase active in the hindgut of the wood-feeding termite Reticulitermes flavipes” (Journal of Structural Biology: X, 2021).
Where “and” joins values, the source holds several entries; their conditions need not be identical. Equal values may be shown once.

How the values were obtained:
[1] = system: T1, O=[N+]([O-])c1ccc(O[C@@H]2O[C@H](CO)[C@@H](O)[C@H](O)[C@@H]2O)cc1; assay: purified protein; format: biochemical, Opitutaceae bacterium; details: 50 mM sodium phosphate pH 6.0, 40 °C, 10 min, apparent
T1 construct: full length, 594 residues, no secretion signal; C-terminal non-cleavable His6 tag (pNIC-CH2), E. coli BL21(DE3) T1R; synthetic gene; ESI-MS 66824 g/mol; homotrimer ~200 kDa; N-terminus MTIDSSGY from primer

[2] = biological target: exo-β-1,4-mannosidase from Opitutaceae bacterium strain TAV5 (Op5Man5) (Opitutaceae bacterium strain TAV5); assay: SEC; Superdex 200 10/300 GL, 20 mM Tris-HCl pH 8.0 and 8.5 with 300 mM NaCl, 4 °C, standard curve of reference proteins
[3] = biological target: exo-β-1,4-mannosidase from Opitutaceae bacterium strain TAV5 (Op5Man5) (Opitutaceae bacterium strain TAV5); assay: cryo-EM structure; single particle cryo-EM at pH 7.5 of pooled SEC fractions with the trimeric species, 0.12 mg/ml; 3.7 Å map
[4] = biological target: exo-β-1,4-mannosidase from Opitutaceae bacterium strain TAV5 (Op5Man5) (Opitutaceae bacterium strain TAV5); assay: SEC; Superdex 200 10/300 GL, 20 mM HEPES pH 7.5 with 300 mM NaCl, 4 °C, standard curve of reference proteins
[5] = biological target: exo-β-1,4-mannosidase from Opitutaceae bacterium strain TAV5 (Op5Man5) (Opitutaceae bacterium strain TAV5); assay: SEC; Superdex 200 10/300 GL, 20 mM buffer with 300 mM NaCl, pH 5.5-6.5 (sodium acetate pH 5.5; MES pH 6.0 and 6.5), 4 °C, standard curve of reference proteins
[6] = biological target: exo-β-1,4-mannosidase from Opitutaceae bacterium strain TAV5 (Op5Man5) (Opitutaceae bacterium strain TAV5); assay: cross-linking; glutaraldehyde 0.4% w/v, protein 0.2 mg/ml, 37 °C, 0 to 60 min, SDS-PAGE (15%)
[7] = biological target: exo-β-1,4-mannosidase from Opitutaceae bacterium strain TAV5 (Op5Man5) (Opitutaceae bacterium strain TAV5); assay: crystal structure; crystals from 0.1 M phosphorus citrate pH 4.2, 30% ethanol, 5% PEG 1000; space group P212121; 2.2 Å

stoichiometry N [2] | stoichiometry N [3] | stoichiometry N [4] | stoichiometry N [5] | stoichiometry N [6] | stoichiometry N [7] | Substance | Km [1] [µM] | kcat [1] [s⁻¹] | kcat/Km [1] [M⁻¹ s⁻¹]
 |  |  |  |  |  | Op5Man5 (Opitutaceae bacterium) | 1000 ± 130 | 239 ± 7.7 | 239000 ± 7700
3 | 3 | 3 and 6 | 3 | 3 and 6 | 3 | exo-β-1,4-mannosidase from Opitutaceae bacterium strain TAV5 (Op5Man5) (enzyme) |  |  | 
